Experimental data published in US20110053831A1.

B1: SEQ ID NO 44 (peptide)
peptide: RSDYKDDDDKKDSIRRRGENISSQEVEAVLMSHPEVVNAAVYPVRGDLPGD
B2: SEQ ID NO 50 (peptide)
peptide: B1 peptide
B3: SEQ ID NO 72 (peptide)
peptide: RSDYKDDDDKAYQSIIGAGKSTLIKALTGVYHADRGTIWLEGQAISPKNTAHAQQCRRRPCSLTWYQLMHRYRY
B4: SEQ ID NO 66 (peptide)
peptide: RSDYKDDDDKAYQSIMAVAAQQPVAFLVGRQRRRGQVGIDSGDQHLRTPLFHELCRRRPCSLAWYQLMHRYRY
B5: SEQ ID NO 34 (peptide)
peptide: RSDYKDDDDKTYQSIKGPENKVKMYFLNDLNFSRRDAGFKARKDALDIASDYENISVVNIPLWGGVVQRIISSVKLSTFLCGLENKDVLIFNFPMAKPFWHILSFFHRLLKFRIVLLIDDKPCRRRPCSLTWYQLMHRYRY
B6: SEQ ID NO 64 (peptide)
peptide: RSDYKDDDDKAYQSISLAGYHGDTSRTFLVGSVSATARKLVEATQETMIDYTCRRRPCSLTWYQLMHRYRY

Biological target: JUN1 fragment of c-Jun (UniProt P05412)
Assay: cell-based or functional assay

Row | Binder | decrease in growth of yeast on HTU media (reverse two-hybrid)
1 | RSDYKDDDDKAYQSKRL [SEQ ID NO 28] | > 50%
2 | RSDYKDDDDKIYSSILWGTKWCVLLVITP [SEQ ID NO 40] | > 50%
3 | RSDYKDDDDKAYQSIIANEEEREKNFASSKKDGSYTDLL [SEQ ID NO 30] | > 50%
4 | RSDYKDDDDKANQLPKILAGRLIFIKC [SEQ ID NO 70] | > 50%
5 | RSDYKDDDDKGLQGRRQPGQQPQGRWSGRALPAHR [SEQ ID NO 60] | > 50%
6 | RSDYKDDDDKGLQGRRQPGQQPQGRWSGRALPAHR [SEQ ID NO 62] | > 50%
7 | B1 | > 50%
8 | B2 | > 50%
9 | RSDYKDDDDKGLQGRRRQGYQSIKP [SEQ ID NO 58] | > 50%
10 | RSDYKDDDDKIIIYIFLNISNSIKNIFDNMGKIR [SEQ ID NO 42] | > 50%
11 | RSDYKDDDDKAYQSISVVVVLVV [SEQ ID NO 68] | > 50%
12 | B3 | > 50%
13 | B4 | > 50%
14 | RSDYKDDDDKLINQSYAYPYIY [SEQ ID NO 38] | > 50%
15 | B5 | > 50%
16 | RSDYKDDDDKAYQSIIH [SEQ ID NO 36] | > 50%
17 | RSDYKDDDDKAYQSM [SEQ ID NO 26] | > 50%
18 | RSDYKDDDDKAYQSIRSGGIESSSKRER [SEQ ID NO 56] | > 50%
19 | RSDYKDDDDNTPHSSDGHNNP [SEQ ID NO 52] | > 50%
20 | RSDYKDDDDKAYQSINSSPVLPENSQELSLHLKQHVTKS [SEQ ID NO 54] | > 50%
21 | B6 | > 50%
22 | RSDYKDDDDKAYQESTKALVEGGADLILIETVLVVVVLVV [SEQ ID NO 32] | > 50%
23 | RSDYKDDDDKLYQSLLTATKELLFVAPVAKAFTSCD [SEQ ID NO 46] | > 50%
24 | RSDYKDDDDKAYQSISFLSQ [SEQ ID NO 48] | > 50%
